Measurements: patent US10254283

How the values were obtained:
[1] = tested on: Flag-eIF4B (S406A)
[2] = tested on: Flag-eIF4B (wild type)
[3] = tested on: positional scanning peptide library Y-A-X-X-X-X-X-S/T-X-X-X-X-A-G-K-K-biotin

Flag-eIF4B (wild type), sequence (chain, as listed by the source): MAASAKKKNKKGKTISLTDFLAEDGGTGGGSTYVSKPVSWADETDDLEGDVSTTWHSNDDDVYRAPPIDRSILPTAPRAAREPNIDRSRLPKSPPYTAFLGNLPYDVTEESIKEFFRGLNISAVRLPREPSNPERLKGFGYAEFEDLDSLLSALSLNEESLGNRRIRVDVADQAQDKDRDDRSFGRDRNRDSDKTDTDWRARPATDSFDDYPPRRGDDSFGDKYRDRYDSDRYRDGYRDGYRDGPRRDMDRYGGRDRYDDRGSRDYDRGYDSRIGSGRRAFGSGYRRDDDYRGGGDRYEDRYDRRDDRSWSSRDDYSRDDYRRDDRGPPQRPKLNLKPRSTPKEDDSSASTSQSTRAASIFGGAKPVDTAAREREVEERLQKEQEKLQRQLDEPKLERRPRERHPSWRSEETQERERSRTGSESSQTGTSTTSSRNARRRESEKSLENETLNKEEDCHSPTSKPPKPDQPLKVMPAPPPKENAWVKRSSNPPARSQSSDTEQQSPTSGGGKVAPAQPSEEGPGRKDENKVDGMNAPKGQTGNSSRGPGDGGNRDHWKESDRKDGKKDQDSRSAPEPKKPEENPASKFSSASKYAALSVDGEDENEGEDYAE
Flag-eIF4B (S406A), sequence (chain, as listed by the source S406A): as the sequence (chain, as listed by the source) above, with S406A counted along it

recombinant full-length MELK
in vitro kinase assay, phosphorylation of eIF4B at S406 (immunoblot) [1]: This phosphorylation was abolished when wild type (wt) eIF4B was replaced with a mutant eIF4B (S406A) | in vitro kinase assay, phosphorylation of eIF4B at Ser406 (immunoblot) [2]: Ser406, but not Ser422, of human eIF4B was readily phosphorylated by full-length MELK or the kinase domain of MELK | in vitro kinase assay, phosphorylation of eIF4B at Ser422 (immunoblot) [2]: MELK does not phosphorylates eIF4B at S422 in vitro | positional scanning peptide library screen, in vitro phosphorylation with 32P-ATP [3]: an optimal substrate motif for MELK was identified having a strong selection for arginine at the -3 position relative to serine/threonine
